2 sequences from patent US20200332307 can be followed below.

Series [1] deals with TALE5 synthetic transcription factor (TAL DNA-binding domain targeting ZmBBM promoter + activation domain) (synthetic (Xanthomonas TAL effector)?). Kind of series: cell_activity. The note with it: endogenous BBM mRNA by qRT-PCR in maize protoplasts, 24 h; text p298 cites SEQ ID NO: 218 but FIG. 3 legend assigns TALE4-6 to SEQ 270-272. Background: In qPCR the cycle at which signal appears reflects the starting amount.

Series [2] deals with TALE1 synthetic transcription factor (TAL DNA-binding domain targeting ZmWUS promoter + activation domain) (synthetic (Xanthomonas TAL effector)?). Kind of series: cell_activity. The note with it: endogenous WUS mRNA by qRT-PCR in maize protoplasts, 24 h.

Consider “TCCTCGAATCATTCTAAGAAGAAAC (double strand) [TALE5 target site in ZmBBM promoter]”, for which, in series [1], the activity (fold induction) worked out at 490.

With “TCCCGCTCTCGCTCTCTGC (double strand) [TALE1 target site in ZmWUS promoter]”, the activity (fold induction) in series [2] was determined as 60.
